A short description of this data set: label from the status in PepcDB records.

For the sequence “MSPIEKSSKLENVCYDIRGPVLKEAKRLEEEGNKVLKLNIGNPAPFGFDAPDEILVDVIRNLPTAQGYCDSKGLYSARKAIMQHYQARGMRDVTVEDIYIGNGVSELIVQAMQALLNSGDEMLVPAPDYPLWTAAVSLSSGKAVHYLCDESSDWFPDLDDIRAKITPRTRGIVIINPNNPTGAVYSKELLMEIVEIARQHNLIIFADEIYDKILYDDAEHHSIAPLAPDLLTITFNGLSKTYRVAGFRQGWMVLNGPKKHAKGYIEGLEMLASMRLCANVPAQHAIQTALGGYQSISEFITPGGRLYEQRNRAWELINDIPGVSCVKPRGALYMFPKIDAKRFNIHDDQKMVLDFLLQEKVLLVQGTAFNWPWPDHFRIVTLPRVDDIELSLSKFARFLSGYHQL”, the protein production entry is listed as “failed”. The result for “MSPPRDLPTLGRNTIPIPEFEMTRRNSKPGVRLLSVLVALGMAAPALAQAVTEPVTQPAIYPTPVSITLDGATIALGRSVVLVVAPGADKATVALVRSILSSAGVTKMATATRLPATLDRPHIVLGTGDAAVVRDALARSKARQDTHKEGYTLASVALDGGSLITLAGHDDDGLFHAAQTLRQLVERPAIPTLTIHDYPAMPIRGTIEGFYGAPWSMSDRSKHIDFLARTKANTFIYSPKDDPYARDRWRAPYPKATLKALGQLAATAKRNHVDFVYAISPGPTVCFSDPADAKALLRKFDAFRALGVRSFYVALDDIEYTKWNCERDKTAFGESGAQAAGIAQSHLLNLVQADLVARHDATSELIMVPTEYYDAKESPYKEALRKHLDPKIVVQWTGTDVVPPAISIPDARAATKAFGRKTLLWDNYPVNDFETSAGRLLMAPYARREAGLSAELSGIVSNPMNQEVPSRVAVMGLTAFAWNDKDYDAQRTWHAAARDLAGGDARVTAALLIFFDTQHLAPTFGSQPWQEQAPRLKAVLDHVREAIALGDAAARTQAIAELARTADEMAAAPQIIRDSVADKGFAKQSRPWLEAMEVWGGALQKTAAGLDAANRGDTQAPALFAEAAAHAAVAAVVPSIPGATRFDGPVKIADGVLDRFIAQAPRLIAYRVPAVADSAAAK” reads “failed”; that for “MSPRSIAMCGRCGIRARHSVAPDCCLSVRQATNKCPAVEHHSHGGRRPCTANGGVAFDRFVMTNRFSPRARSTRIVSKVVWRKRSGRDDENKKTRGEHDMSASVQSALSGLVLAAAVAMPALADGLKDEIAPTGKLRVAIAISPAGGAFWSTRTETGYAGVPVDLGKEMAAQLGVGVEYVVHQNSGQITDAASKGTWDVTWLPKDPERESKMMFGPIYEVADATYIVKAGSNVTSFASLDQPGIKVAAVNATTTMRGAVAHLRNAEVTGYQTYDEIFGLLKSGEIDAFALSRDQLNKMAQKIPGTKVLDETFKKTVTAVAVPLGHSLALTFVTKFMNEATINGTLRKAYDNNGLKDSPIRTE”, “failed”; that for “MSQAHAAQRPNGAKEPANPTQGGRKAIIAAASANLAIAVTKAIAWALTGASSMLAEAIHSVADTANQVVLMMGGKESHKEADEDHPFGYETARYLSGFIVAIVIFTLGGLFALYEAYHKIGATLGGHPDELLDSQWWWVPLAVVMISLCAEGASLRTALKESSQDREGMTILQYIRKAKAPELPVVMLEDSAAVLGLIFAFLGVGLTLLTHNPIFDGIGSACIGILLVVVAGVLSREMKSLLEGESAAPESRKAVYDALIHSDGVDSVIYMKTVHLGPETILLAAKIAVDPTDSAFEVARIIDNAEASVRAAEPLVGPLFLEPDIRYGDKRIKDGEERPEDQS”, “failed”. The result for “MSQALPVRDQGRDQGIFAGTLPPAPPKFKWTRLDTYTWAIIAVFALVTRFTGLSSATASGTPVFDEKHYVPQAWDMVRSWINPITGGIESNPGYGLVVHPPLAKQLEALGEWVFGYTPLGWRIMVAIFGTLTIFAIMAIARRLSGSTMVTFIAGILALADGVLLVSSRFGMLDIFLVFFITAAAWALIRDHQQMHQRLNDLLLTNGQITKDFGPRFGFRWWRFTTGVFLGLALSVKWSGLYYIAFFGLTSVFLDLWLRKRYGVRRYVTGTLKNDVIPALGSLVIIPALLYIWSWRAWFASETSVYRHAKTDGTITEDSILQLFPESIAGWIHYHISVLEFHGSLTTSSGHSHPWDSKPWAWLVSGRPILYFSSTDISCDVGGTCRRMIYLFGTPAIWWLTVPVILWALWSFFARRSRGYVVPLVAFAAGFLPWLAAYDRQMYFFYATALVPFTIIMLALACGELWGRGKMTPTGLTRGSMAVVTYISLVVMMFLAFSPLFYGFVIPDYVYESLMWFPSWR” reads “not failed”; that for “MSQELKNKVQFLAKELNQLVNILYEESKKQTPLTLWLLCKNTFVYLYRTVKTVRGVAGVLLVLVPGSLMAYTTDAFRAIGELPWTSITVLLGGMSFFLFAYLRHLVLDEMSRPGSDLFHIQVYEKRKPDEYMSLIALAKERDYVESIAADIEQVTSTPSLPNLLELLKEKEQDIEEKDRVIEDLLEIVEDNEEHTLMFKEKYEILLDFVFQLKSKLNLLVHDQFSLDSIDFGSDYSLYKVGEEGLEFVDSYGVNKAEMEDFIPFTEKGNPYILAIERDYKDPLKVGDLISWKRTLQDGSQWVLSLHLNENSREKLNDVTESGKLNVTITQELLWICCELLNKFSPNPTKKGEE”, “failed”. Under “MSQFPLISVMTFLPLLGVVLLFFVPKQSHSVHRMLALLVSLVTFVVSIPLVTGFQSNADFQFVEKMPWIAAGPFQMNYHVAIDGISLWLVLLTTFIMPIAILSTWTAVEEKVKEYMICLLLLEVGMLGAFVSLDLFLFYIFWEVMLIPMYFIIGIWGGKNKIYAAVKFFIYTMVGSMLMLVALVTLYFKAGAGDFNVLRFYEVTLDPATQVWMFLAFALAFAIKVPMFPLHTWLPDAHTEAPTAGSVILAAVLLKMGTYGFVRFAMPLFPDATDKFTPLIATLSVIGIIYAALVAMVQEDVKKLVAYSSVAHLGYVMLGVFALNLQGLSGGMLQMLNHGVSTGALFLIVGFIYERRHTRLITDFGGLAKQMPVFATIFMIVTLSSIGLPGTNGFVGEFLVLLGAFESELRWYAVIGTSGVILAAVYMLWMFQRVMFGELTNPKNQTLCDLNAREVGIMLPLLVLIFVMGVYPTPFIEKMSPSLEKLIVHVKTKQQGAVAQVETVPAAPQVMPAAAVVPAEHK” stands “failed”; under “MSQFPNRAALWLNKLAPDAPLMSGLCPSVQVTDGQINGESVRFIAVVPDANNHYPRAAGGEVGLLEGWTLAKVVNETIAADADRPVKRPIVAVIDVPSQAYGRREEAFGIHQALAGAAGAYAKARLAGHPVIGLIVGKAMSGAFLAHGYQANRLIAFNDSGVLVHAMGKASAARITLRTVEALEKLAATIPPMAYDVSNYATLGLLSALLDISNPDAPDEGDLSLVSRTLRDAIADARTDTSLKCRLGAENRRSSQLVRDRMRASW”, “failed”. For the sequence “MSQFQEVRPVAQALYPTHPSTKDALEEARLLLPGGTHHDFMRALMGYHNTLVKVMEEQC”, the protein production result was “not failed”.

Take “MSQIFVVFSSDPEILKEIVREIKRQGVRVVLLYSDQDEKRRRERLEEFEKQGVDVRTVEDKEDFRENIREIWERYPQLDVVVIVTTDDKEWIKDFIEEAKERGVEVFVVYNNKDDDRRKEAQQEFRSDGVDVRTVSDKEELIEQVRRFVRKVGSLEHHHHHH”: the protein production result was “not failed”. In the case of “MSQILIGVGWVLFTVLLYQLSKKIYKLFPTPFTIPMLVATGLMAFLFIVLDIPYQHYMESGGGWIAKLLGPGVVAFAIPLYKQRHVLQKYVVPIAGGVLVGTTVAIASDFAIASLMGTDKSLILSSLPKSVTMPVAMSVSEQVGGVPSLTAAFVVIAGITGTITGPLLLKWSRVTNSVGKGIGFGCASHIMGVMRAMKNNEHEGVIGSVTMTLTAILTCLLGPLFAMMFM”, the protein production result was “failed”. Under “MSQKKTSSRSSSVDDPATQYAKEVHSGERVAGPDIRNACARHLRDLEEGPKRGLTWDLDAANKAIRFYRTVLKLNGGEFEGLPFELLPWQKFIVGSIFGWKSSDGYRRFRVVYVESGKGSGKSPLAAGVGLTGLIADNEARAEIYAAATKKDQAMILFRDAVAMVQQSPELTKRLVCSGTGQNIWNLAYLKSGSFFRPISSDDGQSGPRPHMALIDEVHEHKTNMVVEMMRAGTKSRKQALIFMITNSGSNKRGPCWEYHEYGSRVASGALTDDGFFAYICSLDEGDDPIQDESCWFKSNPSLQDADLPGMKYLREQVTEARGMPSKEAMVRRLNFCEWTGAESPWISWDVWSQAEERVPMSLLRNRPSVGGLDLSSTTDLTSFVLLFYPTYEDPHWRLLPYFWIPDHELDKREARDKVPYAAWIKSRDLETTPGRAISKLHVLRRLQTICDFFQVDKIAFDRWRIEDMRQLMSEYDITLPELVEFGQGFKDMGPAVDEFERRLLGMIEQQPEEEGGAAEFFDDALPAEAVESLRHDGNPVMTWCAGNAVIVSDPANNRKADKAKATGRIDGIIAAIMATGISGAVSSGSSGSSIYDEGVGV” stands “failed”; under “MSQLVTHAFDDATALSFDGRQFHGQVKAEYYNMVGPFGGITAATMLKAAMSHPERLGQPLALTVNFAAPAKVAPFVIEAVPVRTNRSTQHFTLTMMQDGEVVTTATAVFGIRRESWSHTEAVMPDVPPPADVPRFVAPAPLPWMQWYHVRLIRGSAFDEVQDATTYQWMRDDPPRPLDHAALAALCDTFVPRVYVKLKRPVPIGTVTFTVYFLADPETIFRQGTNELLGVARATGFSHGYFDQIGEVWSQDGDLLATTTQLVYMKAPVSGSS”, “not failed”. Under “MSQNWNADYATLAKRGFMLGAGLFLLGIAGEVAGSAVLGTLPAWGDTLLVDMEMLGILVGLLSPLVFGVVMPLTE” stands “failed”. Under “MSQQVIIFDTTLRDGEQALQASLSVKEKLQIALALERMGVDVMEVGFPVSSPGDFESVQTIARQVKNSRVCALARCVEKDIDVAAESLKVAEAFRIHTFIATSPMHIATKLRSTLDEVIERAIYMVKRARNYTDDVEFSCEDAGRTPIADLARVVEAAINAGATTINIPDTVGYTMPFEFAGIISGLYERVPNIDKAIISVHTHDDLGLAVGNSLAAVHAGARQVEGAMNGIGERAGNCSLEEVIMAIKVRKDILNVHTAINHQEIWRTSQLVSQICNMPIPANKAIVGSGAFAHSSGIHQDGVLKNRENYEIMTPESIGLNQIQLNLTSRSGRAAVKHRMDEMGYKESEYNLDNLYDAFLKLADKKGQVFDYDLEALAFIGKQQEEPEHFRLDYFSVQSGSNDIATAAVKLACGEEVKAEAANGNGPVDAVYQAINRITDYNVELVKYSLTAKGHGKDALGQVDIVANYNGRRFHGVGLATDIVESSAKAMVHVLNNIWRATEVEKELQRKAQHNENNKETV” stands “not failed”. Consider “MSQSNSNHSPQEQWQQAVLTYARDINRYVETGNRDGWKGLKEPHLPDTEHLLPDWQAALEASNQEPYDAARRQAFRQEWPPAHFPLSPRLESQGRMIPTLALLPDGSLLARIGAPYEAGEVVHIDDARIQPLEQVEGFGMCPQRRYFAWARADGIQLTDGWNGPEVASFAWPDPHANLPAGVALEDTGRPRPSSLIPFPDGRRVLLVSSDGIFVLQAEGATRLLPSLEDLQQELADGVAPEDLGIGLSMEHGAVSPDGQWIAVGEQSSSHLVFDARLQRVAQIGPASEYPHFAHFNQRGDRLLLNACHFYGGASVGVAVADLPGLSTDFYSDDARTPVLQEGARVYAAASRGDEFIIGDAYGYLRAFSENGEERWQHYIGSTLTAMDISPDGKTLVAATYAGIIVKLDLDAGRPDWQIGTGEHLEVQRWLFWKDFAKPLLW”, for which the protein production entry is “failed”. The result for “MSQSPILFFQHGMGESNQNMQILAGRVASENAYVVVPNLNLLTTFLNLDPLIEVVERSASETLNDFPQSTFSVVGFSMGGILWVEVLSRNPSWLERLDALVLIGSPIQGASLARTVDLFGWGIGIAQELGRNRQYLAEKITQKIPTLVIAGSVNGGGDGVIPIESTRLNGTHFFTRNNVKHQDLPIDLIIGEKVKSFLLHPYLIPS” reads “failed”.
